Assay results published in publication PMC5967319.

Biological target: eukaryotic initiation factor 4E (eIF4E) (human (endogenous in HEK293T)) (UniProt P06730)
Test: pull-down; eIF4E captured from HEK293T lysate (1 mg protein) on m7GTP-agarose (cap analog), 4 °C, 90 min, 50 mM HEPES pH 7.4, 50 mM NaCl; eluted with 0.5 mM m7GTP; blots for eIF4E and 4EBP1; cells in complete medium or medium without His, Arg, Leu or Met for 12 h, or transfected with empty vector, wild-type or T37A/T46A 4EBP1 for 24 h

Sequence of UniProt P06730 (P06730 whole entry): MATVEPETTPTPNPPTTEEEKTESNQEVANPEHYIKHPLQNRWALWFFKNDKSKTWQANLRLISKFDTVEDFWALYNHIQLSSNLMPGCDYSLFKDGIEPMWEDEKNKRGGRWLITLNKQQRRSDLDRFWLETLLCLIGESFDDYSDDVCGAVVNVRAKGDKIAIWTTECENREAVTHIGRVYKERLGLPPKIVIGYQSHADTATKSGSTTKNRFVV

mutant constitutively active 4EBP1(T37A/T46A) (from UniProt Q60876 1-117) (natural protein)
fold of 4EBP1 bound to eIF4E against cells with empty vector: 4 fold
